Tested on: MS2 coat protein
Assay: apparent KD of MS2 coat protein; designed switch direction (-1 OFF switch, 1 ON switch): -1; higher = weaker reporter binding
Outline: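 The reported apparent KD is a per-design median over clusters, from curve fits of normalised cluster fluorescence. Protein titrations used SNAP-549-labelled MS2 coat protein, doubled from 0.7 or 1.5 nM to 3 µM, in Tris-HCl pH 7.5 buffer with KCl, MgCl2, BSA, DTT, tRNA and Tween-20, with no input, 200 uM small-molecule ligand, or an oligonucleotide input. The RNA switches were transcribed on Illumina chips by stalled E. coli RNA polymerase.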

[1] = input ligand: microRNA oligo, concentration not stated

| Sequence | apparent KD of MS2 coat protein (input ligand: FMN 200 uM) [nM] | apparent KD of MS2 coat protein [1] [nM] | apparent KD of MS2 coat protein (input ligand: none) [nM] |
| --- | --- | --- | --- |
| ACAUGAGGAUCACCCAUGUCAGGCGGGUCUACUCCGGCUGUUGAGGAUAUAGUUCGGUAUCCGCGCUAGAAGGUGAGGGCCGGC [Aenatbe mod 23] (Eterna round: R96, puzzle: Exclusion NG 3) | 20.8 | 14.9 | 21.8 |
| ACAUGAGGAUCACCCAUGUCAGGUUGGUUUUCUCCGGCUGUUGAGGAUAUAGUCCGGUAUCCGCGCUAGAAGGUGAGGGUUGGC [Aenatbe mod 13] (Eterna round: R96, puzzle: Exclusion NG 3) | 64.5 | 54.4 | 78.7 |
| ACAUGAGGAUCACCCAUGUCCGGCUGGUCUGUUCCGGUUGUCGAGGAUAUAGUUCGGUGUUCGCGCUAGAAGGUGGGAGCUGGA [Aenatbe mod 54] (Eterna round: R96, puzzle: Exclusion NG 3) | 186 | 103 | 136 |
| ACAUGAGGAUCACCCAUGUCCGUCUGGUCUGUCUCGGCUGUCGAGGAUAUAGCUCGGUAUCCGCGCUAGAAGGCGGGAGUCGGC [Aenatbe mod 96] (Eterna round: R96, puzzle: Exclusion NG 3) | 26.4 | 17.3 | 31.9 |
| ACAUGAGGAUCACCCAUGUCUGGCGGGUCCUCUCCGGCUGUUGAGGAUAUAGUUCGGUAUCCGCGCUAGAAGGUGAGGGCCGGC [Aenatbe mod 20] (Eterna round: R96, puzzle: Exclusion NG 3) | 21.3 | 14.6 | 16.5 |
| ACAUGAGGAUCACCCAUGUGAAACCAAUGGCUGACUUUGAGACAGGAUAUUCGUGCAUAUCAUACGAAGAAGGGUCAUUACUGG [Deportation 96 - Jieux - Exclusion NG 3] (Eterna round: R96, puzzle: Exclusion NG 3) | 63.5 | 45.8 | 55.2 |
| ACAUGAGGAUCACCCAUGUGACAAGAAUGGCUGACACAGAGAUAGGAUAUAGGUGCAUAUCUAACCUAGAAGGGUCAUGACUGG [Deportation 76 - Jieux - Exclusion NG 3] (Eterna round: R96, puzzle: Exclusion NG 3) | 40.2 | 23.3 | 26.5 |
| ACAUGUAAUGCAGGAUAUCUGACACAUGAGGAUCACCCAUGUGACCAGAGGAAUUGCUAUGAGUCGGAGAAGGGUAUGUACAUG [Ex NG2 #54] (Eterna round: R96, puzzle: Exclusion NG 2) | 37.7 | 20.3 | 27.1 |
| ACAUGUAAUGUAGGAUAUUUUACACAUGAGGAUCACCCAUGUGACCGGAGGCUUUACUAUGAGUAAGAGAAGGGUAUGUACAUG [Ex NG2 #62] (Eterna round: R96, puzzle: Exclusion NG 2) | 90.5 | 56.6 | 86.7 |
| ACAUGUCAUCGAGGAUAUUGGACACAUGAGGAUCACCCAUGUACUCGGAGGCUCUACCAUGAGUUCGAGAAGGCGAUGUACAUU [Ex NG2 #77] (Eterna round: R96, puzzle: Exclusion NG 2) | 542 | 256 | 230 |
| ACAUGUCAUCGAGGAUAUUGUACACAUGAGGAUCACCCAUGUAUUCGGUUGCUCUAGCAUGAGUUCGAGAAGGCGAUGUACAUU [Ex NG2 #83] (Eterna round: R96, puzzle: Exclusion NG 2) | 153 | 134 | 194 |
| ACAUGUUAUGUAGGAUAUUAUACACAUGAGGAUCACCCAUGUAACCGGAGGCUUUACUAUGAGUAUGAGAAGGGUAUGAACAUG [Ex NG2 #65] (Eterna round: R96, puzzle: Exclusion NG 2) |  | 64.2 |  |
| ACAUGUUAUGUAGGAUAUUGGACACAUGAGGAUCACCCAUGUACCCGGAGGCUUUACUAUGAGUUCGAGAAGGGUAUGAACAUG [Ex NG2 #68] (Eterna round: R96, puzzle: Exclusion NG 2) | 39.8 | 21.1 | 29.4 |
| ACAUGUUGCGCAGGAUAUGAGACACAUGAGGAUCACCCAUGUGGUUACAUGUCUUACCAAGCGUCUCAGAAGGGUGUGAACAUG [Ex NG2 #33] (Eterna round: R96, puzzle: Exclusion NG 2) | 36.4 | 20.3 | 24.7 |

From the supplement of paper PMC9170038
